Patent publication US20240034774A1

Experiments:
Test in all cases: cell-based or functional assay
[1] = target: HIV-1 envelope glycoprotein gp120 of virus CHO77 (HIV-1 (subtype B))
[2] = target: HIV-1 envelope glycoprotein gp120 of virus 92US657 (HIV-1 (subtype B))
[3] = target: HIV-1 envelope glycoprotein gp120 of virus BaL (HIV-1 (subtype B))
[4] = target: HIV-1 envelope glycoprotein (gp120) of virus 7467 (HIV-1)
[5] = target: HIV-1 envelope glycoprotein (gp120) of virus 7576 (HIV-1)
[6] = target: HIV-1 envelope glycoprotein (gp120) of virus 7595 (HIV-1)
[7] = target: HIV-1 envelope glycoprotein (gp120) of virus 7103 (HIV-1)
[8] = target: HIV-1 envelope glycoprotein (gp120) of virus 7051 (HIV-1)
[9] = target: HIV-1 envelope glycoprotein (gp120) of virus 92HT593 (HIV-1)
[10] = target: HIV-1 envelope glycoprotein (gp120) of virus VS017 (HIV-1)
[11] = target: HIV-1 envelope glycoprotein (gp120) of virus 8117 (HIV-1)
[12] = target: HIV-1 envelope glycoprotein (gp120) of virus 8106 (HIV-1)
[13] = target: HIV-1 envelope glycoprotein (gp120) of virus VS001 (HIV-1)
[14] = target: HIV-1 envelope glycoprotein (gp120) of virus CHO77 (HIV-1)
[15] = target: HIV-1 envelope glycoprotein (gp120) of virus 7141 (HIV-1)
[16] = target: HIV-1 envelope glycoprotein (gp120) of virus VS046 (HIV-1)
[17] = target: HIV-1 envelope glycoprotein (gp120) of virus 1413 (HIV-1)
[18] = target: HIV-1 envelope glycoprotein (gp120) of virus 8318 (HIV-1)
[19] = target: HIV-1 envelope glycoprotein (gp120) of virus 92US657 (HIV-1)
[20] = target: HIV-1 envelope glycoprotein (gp120) of virus 8320 (HIV-1)
[21] = target: HIV-1 envelope glycoprotein (gp120) of virus THRO (HIV-1)
[22] = target: HIV-1 envelope glycoprotein (gp120) of virus 8110 (HIV-1)
[23] = target: HIV-1 envelope glycoprotein (gp120) of virus 1003 (HIV-1)
[24] = target: HIV-1 envelope glycoprotein (gp120) of virus VS044 (HIV-1)
[25] = target: HIV-1 envelope glycoprotein (gp120) of virus 7552 (HIV-1)
[26] = target: HIV-1 envelope glycoprotein (gp120) of virus 8176 (HIV-1)
[27] = target: HIV-1 envelope glycoprotein (gp120) of virus VS042 (HIV-1)
[28] = target: HIV-1 envelope glycoprotein (gp120) of virus 1012 (HIV-1)
[29] = target: HIV-1 envelope glycoprotein (gp120) of virus 8134 (HIV-1)
[30] = target: HIV-1 envelope glycoprotein (gp120) of virus VS043 (HIV-1)
[31] = target: HIV-1 envelope glycoprotein (gp120) of virus VS049 (HIV-1)
[32] = target: HIV-1 envelope glycoprotein (gp120) of virus VS004 (HIV-1)
[33] = target: HIV-1 envelope glycoprotein (gp120) of virus 92US727 (HIV-1)
[34] = target: HIV-1 envelope glycoprotein (gp120) of virus VS026 (HIV-1)
[35] = target: HIV-1 envelope glycoprotein (gp120) of virus 7015 (HIV-1)
[36] = target: HIV-1 envelope glycoprotein (gp120) of virus VS039 (HIV-1)
[37] = target: HIV-1 envelope glycoprotein (gp120) of virus VS030 (HIV-1)
[38] = target: HIV-1 envelope glycoprotein (gp120) of virus REJO (HIV-1)
[39] = target: HIV-1 envelope glycoprotein (gp120) of virus 302076 (HIV-1)
[40] = target: HIV-1 envelope glycoprotein (gp120) of virus 1489 (HIV-1)
[41] = target: HIV-1 envelope glycoprotein (gp120) of virus 92US712 (HIV-1)
[42] = target: HIV-1 envelope glycoprotein (gp120) of virus 7714 (HIV-1)

B1: Antibody 1.36.35-1 (antibody, human IgG1, kappa, V domains shown)
VH: QVQLVQSGAEVKKPGASVRVSCKASGYNIRDYFMHWWRQAPGQGLQWVGWINPKTGQPNNPRQFQGRVTMTRHASWDFDTFSAYMDLSRLRSDDTATYFCARQRTDYWDFDVWGQGTMVTVSS
VL: DIQMTQSPSSLSASVGDRVTITCQANGYLNWYQQKPGKAPKLLIYDGSNLETGVPSRFSGSRWGQEYTLTISSLQPEDIATYFCQVYEFVGPGTNLDIKR
In the case of B1, the Virus Neutralization Potency (IC50) [1] is reported as 0.32 µg/mL, the Virus Neutralization Potency (IC50) [2] is reported as 5.37 µg/mL and the Virus Neutralization Potency (IC50) [3] is reported as over 20 µg/mL.

B2: Antibody 1.1.104-1 (antibody, human IgG1, kappa, V domains shown)
VH: QVQLLQSGAAVTKPGASVRVSCEASGYNIRDYFIHWWRQAPGQGLQWVGWINPKTGQPNNPRQFQGRVSLTRHASWDFDTFSFYMDLKALRSDDTAVYFCARQRSDYWDFDVWGSGTQVTVSS
VL: DIQMTQSPSSLSASVGDTATITCQANGYLNWYQQRRGKAPKLLIYDGSKLERGVPSRFSGRRWGQEYTLTINNLQPEDIATYFCQVYEFFGPGTRLDLKR
In the case of B2, the Virus Neutralization Potency [4] is reported as 0.06 µg/mL, the Virus Neutralization Potency [5] is reported as 1.1 µg/mL and the Virus Neutralization Potency [6] is reported as 8.47 µg/mL. The Virus Neutralization Potency [7] was 1.82 µg/mL, the Virus Neutralization Potency [8] was 1.32 µg/mL and the Virus Neutralization Potency [9] was 0.28 µg/mL. The Virus Neutralization Potency [10] was 2.33 µg/mL, the Virus Neutralization Potency [11] was 1.22 µg/mL and the Virus Neutralization Potency [12] was 2.8 µg/mL. The Virus Neutralization Potency [13] was 0.34 µg/mL, the Virus Neutralization Potency [14] was 0.03 µg/mL and the Virus Neutralization Potency [15] was 6.57 µg/mL. It also gave a Virus Neutralization Potency [16] of 0.03 µg/mL, a Virus Neutralization Potency [17] of 4.34 µg/mL and a Virus Neutralization Potency [18] of 0.32 µg/mL. It also gave a Virus Neutralization Potency [19] of 0.36 µg/mL, a Virus Neutralization Potency [20] of 4.34 µg/mL and a Virus Neutralization Potency [21] of 4.27 µg/mL. It also gave a Virus Neutralization Potency [22] of 4.19 µg/mL, a Virus Neutralization Potency [23] of 1.44 µg/mL and a Virus Neutralization Potency [24] of 0.28 µg/mL. The Virus Neutralization Potency [25] was over 80 µg/mL, the Virus Neutralization Potency [26] was 0.16 µg/mL and the Virus Neutralization Potency [27] was 2.33 µg/mL. For the same binder, the Virus Neutralization Potency [28] was 2.87 µg/mL, the Virus Neutralization Potency [29] was 6.07 µg/mL and the Virus Neutralization Potency [30] was 1.49 µg/mL. The Virus Neutralization Potency [31] was over 100 µg/mL, the Virus Neutralization Potency [32] was 4.8 µg/mL and the Virus Neutralization Potency [33] was 10.6 µg/mL. It also gave a Virus Neutralization Potency [34] of 0.19 µg/mL, a Virus Neutralization Potency [35] of 0.67 µg/mL and a Virus Neutralization Potency [36] of 0.1 µg/mL. For the same binder, the Virus Neutralization Potency [37] was 7.9 µg/mL, the Virus Neutralization Potency [38] was 0.02 µg/mL and the Virus Neutralization Potency [39] was 0.1 µg/mL. For the same binder, the Virus Neutralization Potency [40] was 0.28 µg/mL and the Virus Neutralization Potency [41] was 0.04 µg/mL.

B3: Antibody 1.1.119-1 (antibody, human IgG1, kappa, V domains shown)
VH: QVQLLQSGAAVTKPGASVRVSCEASGYNIRDYFIHWWRQAPGQGLQWVGWINPKTGQPNNPRQFQGRVSLTRHASWDFDTFSFYMDLKALRSDDTAVYFCARQRSDYWDFDVWGSGTQVTVSS
VL: DIQMTQSPSSLSASVGDRATITCQANGYLNWYQQRRGKAPKLLIYDGSKLERGVPSRFSGSRWGQEYTLTISSLQPEDIATYFCQVYEFFGPGTRLDLKR
With B3 the Virus Neutralization Potency [4] was 0.19 µg/mL, the Virus Neutralization Potency [5] was 0.6 µg/mL and the Virus Neutralization Potency [6] was 3.07 µg/mL. For the same binder, the Virus Neutralization Potency [7] was 1.16 µg/mL, the Virus Neutralization Potency [8] was 1.89 µg/mL and the Virus Neutralization Potency [9] was 0.15 µg/mL. The Virus Neutralization Potency [10] was 2.75 µg/mL, the Virus Neutralization Potency [42] was 1.93 µg/mL and the Virus Neutralization Potency [11] was 1.66 µg/mL. It also gave a Virus Neutralization Potency [12] of 1.44 µg/mL, a Virus Neutralization Potency [13] of 0.37 µg/mL and a Virus Neutralization Potency [14] of 0.02 µg/mL. It also gave a Virus Neutralization Potency [15] of 4.98 µg/mL, a Virus Neutralization Potency [16] of 0.03 µg/mL and a Virus Neutralization Potency [17] of 4.52 µg/mL. For the same binder, the Virus Neutralization Potency [18] was 0.42 µg/mL, the Virus Neutralization Potency [19] was 0.3 µg/mL and the Virus Neutralization Potency [20] was 1.47 µg/mL. The Virus Neutralization Potency [21] was 2.8 µg/mL, the Virus Neutralization Potency [22] was 2.37 µg/mL and the Virus Neutralization Potency [23] was 0.91 µg/mL. The Virus Neutralization Potency [24] was 0.2 µg/mL, the Virus Neutralization Potency [25] was over 80 µg/mL and the Virus Neutralization Potency [26] was 0.27 µg/mL. For the same binder, the Virus Neutralization Potency [27] was 2.19 µg/mL, the Virus Neutralization Potency [28] was 1.06 µg/mL and the Virus Neutralization Potency [29] was 3.44 µg/mL. It also gave a Virus Neutralization Potency [30] of 0.81 µg/mL, a Virus Neutralization Potency [31] of over 100 µg/mL and a Virus Neutralization Potency [32] of 6.02 µg/mL. The Virus Neutralization Potency [33] was 43.7 µg/mL, the Virus Neutralization Potency [34] was 0.14 µg/mL and the Virus Neutralization Potency [35] was 1.08 µg/mL. The Virus Neutralization Potency [36] was 0.13 µg/mL, the Virus Neutralization Potency [37] was 4.96 µg/mL and the Virus Neutralization Potency [38] was 0.03 µg/mL. It also gave a Virus Neutralization Potency [39] of 0.08 µg/mL, a Virus Neutralization Potency [40] of 0.17 µg/mL and a Virus Neutralization Potency [41] of 0.03 µg/mL.
